tested on: K4 kissing-loop RNA reporter; experiment: apparent KD of K4 kissing-loop reporter; higher = weaker reporter binding; settings: Eterna round: R107; input ligand: theophylline 20 uM
Experimental: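 RNA-MaP round R107: designed RNA switches with theophylline, tryptophan, arginine or FMN aptamers are transcribed on-chip within common flanks. They are titrated with a labelled K4 kissing-loop RNA reporter in RNA-MaP buffer (100 mM Tris pH 7.5, 80 mM KCl, 4 mM MgCl2), without ligand or with the indicated ligand. Median apparent KD per design.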
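Also: bound reporter read as fluorescence of individual clusters on recovered sequencing chips by microscopy, with normalized cluster intensities fitted with a binding model.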

Sequence | apparent KD of K4 kissing-loop reporter
AUGUACACGAUAGUGUACUCCUAGUGAUGUUAGGAUAUGCAGAUAUGCAGAAGGGACAAGUCAUCUGACAAUAGUCGGAUGACAA [FmnAX 10 #OpenEnded #K4Early] | 114 nM
AGGUGAGACUGAAGGAGCGAUCGCGCUAGUGAUGUUGGCGAGCAUGACAAAGUCAUGCACGAUCAGGUAGGUCGCAGUCUUACUC [Omei KL Arginine B SS B v1] | 123 nM
AAGAAUAAUCUUGCAGUGAUGUUGCAAGAUACCAGCAUCGAAAGAUGCCCUUGGCAGCUUGAAAACAUCACUAUCAAGCUGCAUA [Design2] | 552 nM
UUAAUAAUUCAAGGAUAUGUUUUCUAUUUCGAGUGAUGUUCGGAAUUAAUAAAUUUAAAAGAUUAUACAGAAGGUGAUAAAUAGU [Cynwulf-mod#2] | 115 nM
UGUCAUUGGUCUGAUACCAGUACCCUUGGCAGCCAAGGAGUGAUGUUCCAAGGAUACCAGUGCCCUUGGCAGCAGACCGAUGACU [TheoBS 12 #DoubleAptamer #SwitchBubble] | 613 nM
UGCCGGGCUGUACGUUACUUAAAUCGCGAUACCAGCGAUACAAUCCGCCCUUGGCAGCGCAGUGAUGUUGCGCGGUCAUUACGGG [theeternabot_exclusion_KL_Theo_A_27] | 103 nM
UUAUAUUUUAUAUUUAGUAGAGCUCUAGCUCGAGGACCGGUACGGCCGCCACUCGAGUGAUGUUCGAGUGGGUGAGCUCUACAUU [AK3 EXC Tryptophan A] | 101 nM
UCCUAGGUUCGUCGGCGAAAGCCCUGCGAAGGAGCGUGCGAAAGCACAGGUAGGUCGCGCAGUGAUGUUGCACCUAGGUAAUAAA [#SwitchBubble 23 #K4Late] | 150 nM
UAGGUUUAAUCGGCCGCCACUAUCAGAGCGCCAGUGAUGUUGGAGUAACGAUCGUGGCGAGUUAAUAGGACCGGGAUUCAACACA [Velazaer] | 152 nM
AUGCGCGCGGCGGCCGCCACUCGCAUGAGAGUGAUGUUCUCGCCGUGCCCGUAAGGGUGCGGUGUGAGGACCGGGCCGGGCUGCG [#2 Same State - Tryptophan B Attempt #20 (HarryS)] | 37.5 nM
GUGCGUAAGUGAUGUUUACGUCAGCUCCGCAAGGAUAUCCUGAUUAGGAGAAGGUGCGGGAACUAAAGACGCUCGUUCUAGCAGG [theeternabot_exclusion_KL_FMN_A_33] | 168 nM

same assay, conditions: Eterna round: R107; input ligand: tryptophan 2.4 mM

Sequence | apparent KD of K4 kissing-loop reporter
UGUCAUUGGUCGGCCGCCACUAAAUAAAAGAGUGAUGUUCUUAAGACGGAUCGAAAGAUCUGUCAUAGGACCGGGACCGAUGACU [TrypBS 21 #SwitchBubble #StaticStem] | 667 nM
AAACGUUGGUGCGAUACCAGCUGCUCGGAAACGAGCUUGCUGGAGUGAUGUUCCAGGAAAAGCCCUUGGCAGCGCACCGACGAAA [MAT - Same State Theophlline B - Mod of Eli - D27] | 715 nM
UUUAGGAACUGAGGAUAUUCGAAGAAAUAUAGUGAUGUUAUAUAAGGAGGAGGAGGGAGGGAGGAAGGAGAAGGCAGAAGAGGAG [ExFMNB.E] | 248 nM
CCAUUCAGUUACGAUACCAGUCUAAUAUAUUUGAUCAAAACCCUCGCCGAGUGAUGUUCGGACCCUUGGCAGCGUCUGGGACAGG [xxcetmullin] | 344 nM
CCUAUCUCAUACGAUACCAGUGAUUAACCAGUGAUGUUGGAAUAACCAAGGAAUAUUUUUCACCCUUGGCAGCGUAUGGGAUAGG [Ex Theophylline B K4 26] | 49.6 nM
AAGUGUGUGGCGGCCGCCACUAGAAUCCAGUGAUGUUGGAGAUAUCACGUAAGUGAUAUCCACCAUAGGACCGGGCCAUAUAGAA [Same State - Tryptophan B (Freestyle 13)] | 483 nM
UAUAUGCAGUGAUGUUGCGGCACACUUCCGAAGGAUAUGUCCGGUGACAGAAGGUCGGUCCAUGGGACAUCACGUGUGCUUGAUG [theeternabot_exclusion_KL_FMN_A_15] | 458 nM
AAAAUAAAUCAGUGAUGUUGGUAUCUGGAUACCAGCGAUAAUAGUCGCCCUUGGCAGCCAUGGACGUACAAAAUAAGUACGUCCU [MatMod 19 - Jieux - Same State - Theophylline A] | 160 nM
UAUAAGCGCAGAGGAUAUACUAGCUUUCACUAGUGCAGUGAUGUUGCACUAGACCAGCUGUACAUAGUAGAAGGCUGCGUUCCUU [FMN B SS t1] | 117 nM
AUGGCACCUGCGGCCGCCACUCACUCCGGGCUGCUGGCCAGUGAUGUUGGUACGGCUGCCGGUUAGAGGACCGGGCAGGAGCUAA [Rienisdite] | 90.7 nM
GCCGUACGCAUGGAUACCAGCUAGACCGAGUGAUGUUCAGGUCUGAAUGCCGGUAAUAAGAGCCCUUGGCAGCCAUGCGUACGGC | 307 nM
GGAUAGGACACGGCCGCCACUACCGAGGAUACUCGAAACAUUUCCUCAGAUGAGUGAUGUUCAUCUAGGACCGGGUGUCCUAUCG [KL-XTryp-B19 #analogue] | 131 nM
UAAUAUCAACUUGUAGGAGUGAUGUUCCGCCGAGGACCGGUACGGCCGCCACUCGACAAAAUCUCAGUGUGGUACCUAGGAAUUU [theeternabot_exclusion_KL_Trp_A_24] | 431 nM
GAUAGGAAACUAUCAAAUCGGGAAACCGAUACCAGUAUGGAUUCAUACCCUUGGCAGCGGGAUUAUAAAAUAGGAGUGAUGUUCC [Theophylline A K4 16] | 189 nM
UGAUUUAACUGAAGGAGCGGCAAUUGAUAAGUAAAUAUAGUGAUGUUAUAUAAGAUAGAGAGCCAGGUAGGUCGCAGAGGUAUUU [ExArgB.N] | 141 nM
UAAUCACUCGAACUGCAAGUACGAGUGGAACGAGGACCGGUACGGCCGCCACUCGAUAACUUGCAGUGAUGUUGCAAGUAAGAAU [(T)''-(K)'-(T)'-(T1)-(T2)-(K1)-(K2)_Design7] | 121 nM
UUUUUGGUUUAGAGUGAUGUUCCUUGUUUUCGAGGACCGGUACGGCCGCCACUCGAAAAGAAAAGAAAAGAAAAGAGUGAUGUUU [BDazzled - #1 SS Tryptophan A] | 258 nM
UAACCGCAGAAAGAUACCAGUGAGUGAUGUUCCUCGAUCCUGUGGUUCAUUCUCUUUACCCACCCUUGGCAGCUUCAAAUGUGAC [theeternabot_exclusion_KL_Theo_B_4] | 602 nM
GCGUUACUGAAAGGAUAUGAUCAACAUAGUGGUCAGUGAUGUUGGCAGGCCUCGUGGCGAGGUAGAUCAGAAGGUUCAUUACGAC [theeternabot_sameState_KL_FMN_B_11] | 482 nM
CUAGCCGGGAAAGGAUAUACACACGCACAUAACGAGUGAUGUUCGUUAAUACCAACUUGGUUAACUGUAGAAGGUUCAUCGUCAC [theeternabot_sameState_KL_FMN_B_36] | 517 nM
UUUUAAUAAAAGGAUACCAGUACAAAUAAAGUACAUUAAUAGUAGAGUGAUGUUCUAAAGUACCCUUGGCAGCUUAGAGUAAGUU [#17 K4 Theophylline B Exclusion] | 85.1 nM

Sequence | apparent KD of K4 kissing-loop reporter
UGAUACCAGACGGCCGCCACUGCACCAGUCAAUGACUGAGUGUAGUAAUGCUCAGUGAUGUUGAGUAGGACCGGGUCUGGUAUCU [Mod of Eli's TrypBX 8 v1] | 130 nM
GAUUACAACAGAGUGAUGUUCUGACUUUCUCGAGGACCGGUACGGCCGCCACUCGUUAAACAAAGUGGUUUGCCAAGGCCAACUU | 111 nM
GGCACGUUCCCUUGAUCAGUGAUGUUGUUUCGAGGACCGGUACGGCCGCCACUCGCUCGGCGUUCGCCCAGGCCCGGAAAACUGC [theeternabot_exclusion_KL_Trp_A_13] | 225 nM
UGUACCGAGUCAGGAUAUAGCGUCGAAAGACGAAUCCUAGUGAUGUUAGGGAUCUGCGAAAGCAGUCUAGAAGGGACUUGGUACU [FmnBS 26 A19+U68] | 291 nM
CGAUUUGCUUCAGCCUUAGUGAUGUUAAGGCGAGGACCGGUACGGCCGCCACUCGUAGGUUAUGUGCACGGCGGCGCUAAGGGCC [theeternabot_exclusion_KL_Trp_A_36] | 108 nM
CGGAUGUAGUGAUGUUAUAUAAGAAGUAGACGAGGACCGGUACGGCCGCCACUCGAAACGGCUACUAGCGCGUUGCGAGGUGUGC [ExTryptoA.Ch] | 500 nM
UUCUUGAUGGAAACAUCGAGGAUCACUGAUACCAGUAUCGAUAGAUACCCUUGGCAGCAGUGUCGGUGGUCACGAGUGAUGUUCG [Ex Theophylline A K4 12] | 787 nM
GGAUCCUAGGCGGCCGCCACUCCAAUUGGCCGAAAGGCCUGAUACCGAGUGAUGUUCGGUUGGAGGAGGACCGGGCCUAGGAUCC [#2 Exclusion - Tryptophan B Attempt #2 (HarryS)] | 104 nM
UACAGGGAUAGUGAUGUUAUCCCAUGUGAUACCAGUGCCAUCCAACACCCUUGGCAGCAUACGGGCAGUGAUGUUGUUCUUGGUU [Exclusion Theophylline A GF 13] | 88.5 nM
AUGUACACGAUAGUGUACUCCUAGUGAUGUUAGGAUAUGCAGAUAUGCAGAAGGGACAAGUCAUCUGACAAUAGUCGGAUGACAA [FmnAX 10 #OpenEnded #K4Early] | 91.5 nM
AGGUGAGACUGAAGGAGCGAUCGCGCUAGUGAUGUUGGCGAGCAUGACAAAGUCAUGCACGAUCAGGUAGGUCGCAGUCUUACUC [Omei KL Arginine B SS B v1] | 141 nM
AAGAAUAAUCUUGCAGUGAUGUUGCAAGAUACCAGCAUCGAAAGAUGCCCUUGGCAGCUUGAAAACAUCACUAUCAAGCUGCAUA [Design2] | 558 nM
UUAAUAAUUCAAGGAUAUGUUUUCUAUUUCGAGUGAUGUUCGGAAUUAAUAAAUUUAAAAGAUUAUACAGAAGGUGAUAAAUAGU [Cynwulf-mod#2] | 81.1 nM
UGUCAUUGGUCUGAUACCAGUACCCUUGGCAGCCAAGGAGUGAUGUUCCAAGGAUACCAGUGCCCUUGGCAGCAGACCGAUGACU [TheoBS 12 #DoubleAptamer #SwitchBubble] | 901 nM
UGCCGGGCUGUACGUUACUUAAAUCGCGAUACCAGCGAUACAAUCCGCCCUUGGCAGCGCAGUGAUGUUGCGCGGUCAUUACGGG [theeternabot_exclusion_KL_Theo_A_27] | 91.4 nM
UUAUAUUUUAUAUUUAGUAGAGCUCUAGCUCGAGGACCGGUACGGCCGCCACUCGAGUGAUGUUCGAGUGGGUGAGCUCUACAUU [AK3 EXC Tryptophan A] | 363 nM
UCCUAGGUUCGUCGGCGAAAGCCCUGCGAAGGAGCGUGCGAAAGCACAGGUAGGUCGCGCAGUGAUGUUGCACCUAGGUAAUAAA [#SwitchBubble 23 #K4Late] | 781 nM
UAGGUUUAAUCGGCCGCCACUAUCAGAGCGCCAGUGAUGUUGGAGUAACGAUCGUGGCGAGUUAAUAGGACCGGGAUUCAACACA [Velazaer] | 156 nM
AUGCGCGCGGCGGCCGCCACUCGCAUGAGAGUGAUGUUCUCGCCGUGCCCGUAAGGGUGCGGUGUGAGGACCGGGCCGGGCUGCG [#2 Same State - Tryptophan B Attempt #20 (HarryS)] | 239 nM
GUGCGUAAGUGAUGUUUACGUCAGCUCCGCAAGGAUAUCCUGAUUAGGAGAAGGUGCGGGAACUAAAGACGCUCGUUCUAGCAGG [theeternabot_exclusion_KL_FMN_A_33] | 162 nM
